Laboratory results published in the nanobody polyreactivity screen of Harvey et al. (2022).

Test: yeast display, Sf9 membrane polyspecificity reagent, FACS + sequencing; frameworks hold sequencing errors
Outline: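 Genes from sorted yeast were amplified by colony PCR, read by MiSeq 2 × 250 sequencing and filtered on CDR length. These cells carried a synthetic nanobody library in Saccharomyces cerevisiae BJ5465 and were sorted by FACS into low and high (top ~1%) gates on anti-HA and streptavidin fluorescence. Polyreactivity is labelled according to the gate of origin.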

| Sequence | polyreactivity (PSR sort gate) |
| --- | --- |
| QVQLVESGGGLVQAGGRLRLSCAASGNIFYYYAMGWYRQAPGKERELVADIRSSGRTNYADSVKGRFTISRDNATNTVYLQMNSLKPADTAVYYCATDKWYSYADKYDYWGQGTQVTVSS | low polyreactivity |
| QVQLVESGGGLVQAGGSLRLSCAASGSISIRNAMGWYRQAPGKERELVAAISRGGSTYYADSVKGRFTISRDNAKNTVYLQMNSLKPEDTAVYYCATDGGRYYRGREYAFKYYYWGQGTQVTVSS | high polyreactivity |
| QVQLVESGGGLVQAGGSLRLSCAASGRIFPTYAMGWYRQAPGKERELVATITRRGGSTYYADSVKGRFTISRDNAKNTVYLQMNSLKPEDTAVYYCAARLWGTIRYDYWGQGTQVTVSS | high polyreactivity |
| QVQLVESGGGLVQAGGSLRLSCAASGITFYVNAMGWYRQAPGKERELVAAITQSVDITSYADSVKGRFTISRDNAKNTVYLQMNSLKPEDTAVYYCATRGIPDDNARDYWGQGTQVTVSS | low polyreactivity |
| QVQLVESGGGLVQAGGSLSLICAASRFTFDSYAMGWYRQAPGKERELVAAINYSGGRTDYADSVKGRFTISRDNAKNTVYLQMNSLKPVDTAVYYCAAKGVRWGQGTQVTVSS | high polyreactivity |
| QVQLVESGGGLVQAGGSLRLSCAASGFTFYSYPLGWYRQAPGKERELVAAITRGGRTYYADSVKGRFTISRDNAKTTVYLQMNSLKPDDSAVSYCNATAGHGYYYWGQGTQVTVSS | high polyreactivity |
| QVQLVESGGGLVQAGGSLRLSCAASGFIFYKNAMGWYRKAPGKERELVAAISSRGGSTSYADSVKGRFTISRDNAKNTVYLQMNSLKREDTAVYYCAAYPDYSYYYWGQGTQVTVSS | high polyreactivity |
| QVQLLESWGGLVQAGGSLRLSCAASGSIFSYYAMGWYRQAPGKERELVATISSGDSTYYADTVKGRFTISRDNAKNTVYLQMHSLNPEDTEVYYCARKPRIRYYPAPYDYWGQGTQVTVSS | low polyreactivity |
| QVQLVESGGGLVQAGGSLRLSCAASGSTFRLYAMGWYRQAPGKEREFVAAISFRGGSTYYADSVKGRFTISRDNAKNTVYLQMNSLKPEDTAVYYCAADYWTSADPRNIIKYDYWGQGTQVTVSS | high polyreactivity |
| QVQLVESGGGLVQAGGSLRLSCAASGRTFAYYAMGWYRQAPGKERELVAAIDLSDGTTFYADSVKGRFTISRDNAKNTVYLQMNSLKPEDTSVYYCAAELFNVSYGSDFDYWGQGTQVTVSS | low polyreactivity |
| QVQLVESGGGLVQAGGSLRLSCAASGSIFYWNAMGWYRQAPGKERELVAAINYSGDSTYYADSVKGRFTISRDNAKNTVYLQMNSLKPEDTAVYYCNFDYWGQGTQVTVSS | low polyreactivity |
| QVQLVESGGRLLQEGGSLRLSCAASGLIVTYYTMGWYRPAPGKERELVASIDSGGSTNYADSVQGRFTISRDNAKNTVYLQLNCLKPEDTAVEFCAADYDGWFYEMGYWGQGTQVTVSS | low polyreactivity |
| QVQLVESRGGLVQAGGSLRLSCAASGNTFRIYTMGWYRQAPGKDRELVATITRRGGYTYYADSVKGRFTISRDNAKNTVYLQMNSLKPEDTAVYYCNALPRPSYTFDYWGQGTQVTVSS | high polyreactivity |
| QVQLVESGGGIVEAGGSLRLSCAASGRIFNQYAMGWYRQAPGKEREFVAAIRWSGGRTYYADSVKGRFTISRDNAKNTVYLQMNRLKPEDTAVYYCAADLYGNNYWDGTTGYDYWGQGTQVTVSS | low polyreactivity |
| QVQLVESGGVLVQAGGSLRLSCAASGSTFLLNTMGWYRQAPGKERELVATITSTDDTNYADSVKGRFTISRDNAKNTVYLHMNSLKPEDTAVYYCAKGYLNYGRDWDFDSWGQGTQVTVSS | low polyreactivity |
| QVQLVESGGGLVQAGGSLRLSCAASGLIFYYYTMGWYRQAPGKERELVARITSSGGRTYYADSVKGRFTISRDNAKNTVYLQMNSLKPEDTAVYYCNARVPRYNGGSTMEYWGQGTQVTVSS | high polyreactivity |
| QVQLVESGGGLVQAGGSLRLSCAASGITFAYYVKGWYRQAPGKERQLVAAITRSGDITSYADSVKGRFTISRDNAKNTVYLQMNSLKPEDTAVYYCNARRGYQSRRYNYWGQGTQVTVSS | high polyreactivity |
| QVQLVESGVGLVQAGGSLRLSCAATGSILSINGMGWYIPAPGKERELVATIDGSDGSTFYADSVKGRFTISRDNAKNTVFLQMNSLNPEDTEVYYCADENFWQTKEYDYWGQGTQVTVSS | low polyreactivity |
| QDQLVESGGGLVQAGGSLSLCCAASGFTFKLYAMGWYRQAAGKVREVVAAISSSGGRTYYADSVKGRFTISRDNAKNTVYLQMNSLKPEDTAVYYCNAVRTVNDYHYDYSGQGTQVTVSS | high polyreactivity |
| QVQLVESGGGLVQAGGSLRLSCAASGSTFDGNAMGWYRPAPGKVRELVAAITRAGRTSYADSVKGRFTISRDNAKNTVYLQMNSLKPEDTAVYYCAKGGYDYWGQGTQVTVSS | low polyreactivity |
| QVQLVESGGGLVQAGGSLRLSCAASGIIFDDNAMGWYRQAPGKERELVAAISSGSTTNYADSVKGRFTISRDNEKNTVYLQMTSLKPEDTAVYYCAAVDGLAFDYWGQGTQVTVSS | low polyreactivity |
| QVQLVESGGGLVQAGGSLRLSCAASGFIFRYYAMGWYRQAPGKERELVAAISWRGGSTYYADSVKGRFTISRDNAKNTVYLQMNSLKPEDTAVYYCAAERYVDYGYWGQGTQVTVSS | high polyreactivity |

| Sequence | polyreactivity (PSR sort gate) |
| --- | --- |
| QVQLVESGGGLVQAGGSLRLSCAASGRIFTTYAMGWYRQAPGKERELVASISWRVGSTYYADSVKGRFTISRDNAKITVYLQMNSLKPEETAVYYCAAVGGNYHASGLRYYWGQGNQVTVSS | low polyreactivity |
| QVPLVESVGGLVQAGGSLRLSCAASGTIFFGYAMGSYRQAPGKERDLVASISSGDTTYYADSVKGRFTISRDNAKNTVYLQMNSLKPEDTAVYYCAAREGQLWEDGDYWGQGTQVTVSS | low polyreactivity |
| QVQLVESGGGLVQAGGSLRLSCAASGSIFNKNVMGWYRQAPGKERELVAAITSGGGSTYYADSVKGRFTISRDNAKNTVYLQMNSLKPEDTAVYYCAAGRGLYEYNYWGQGTQVTVSS | high polyreactivity |
| QVLLVESGGGLVQAGGSLRLSCAASGFIFRPNAMGWYRQAPGKERELVARITYRGGSTYYADSVKGRFTISRDNAKKTVYLKMNSLKPEDTAVYYCAARAVTYAGYTYNYWGQGTQVTVSS | high polyreactivity |
| QVQLVESGGGLVQAGGSLRLSCAASGSIFHYNAMGWYRQAPGKEREFVAVISKSSGSTFYADSVKGRLTISRDNAKNTVYLQMNSLKPEDTAVYYCNRVTKRYRKIGNYWGQGTQVTVSS | high polyreactivity |
| QVQLVESGGGLVQAGGSLRIICAASGRIFTFYAMGWYRQATGKARELVASIRSSTYYADSVKGRFTISRDNAKYTVYLQMNSLKPEDTALYYCNVRLSYSYISPSDWNFDYWGQGTQVTVSS | low polyreactivity |
| QVQLVESGGRLVQAGGSLRLSCAASGRTFGKYVMGWYRQAPGKERELVAAISRSGGGTYYADSVKGRFTISRDNAKNTVYLQMNSLKPEDTAVYYCAKGSRSNIFQDSYNYWGQGSQVTVSS | high polyreactivity |
| QVQLVESGGGLVQAGGSLRLSCAASGRIFRYYAMGWYRQAPGKERELVAAISWSGTSTYYADSVKGRFTISRDNAKNTVYLQMNSLKPEDTAVYYCAKVGYQYATYRSDYWGQGTQVTVSS | high polyreactivity |
| QVQLVESGGGLVQAGGSLRLSCAASGRIFVHNVMGWYRQAPGKERELVAAITVSGGGTYYADSVKGRFTISRDNAKNTVYLQMNSLKQEDTAVYYCNAVPHPYDWGQGTQVTVSS | low polyreactivity |
| QVQLVESGGGLVQAGGSLRLSCAASGSIFVPYAMGWYRPAPGKERELVAAISWSGGSTYYADSVKGRFTISRDNAKNTVYLHMNSLKPEDTAVYYCAVRFRSYTSYYWIDYEYWGQGTQVTVSS | high polyreactivity |
| QVQLVESAGGLVQAGGSLRLSCAASGSIFKDYAMGWYRQAPGKERELVAAITSGTSTTYADSVKGRFTISRDNAKYTVYLPMNSLKPDDTAVYYCAADYYLRKTRFESWGQGTQVTVSP | low polyreactivity |
| QVQLVESGGGLVQAGGSLRLSCAASGSNFWAYTMGWYRQAPGKERELVAVITDSTGSTYYADSVKGRFTISRDNAMNTVFLQMNSLKPEDTAVYYCAARLWIGYLKYDYWGQGTQVTVSS | high polyreactivity |
| QVQLVESGGGLVQAGGSLRLSCAASGSIFYVYAMGWYRQAPGKERELVAAITSSGTTNYADSVKGRLTISRDNAKNTVYLQMNSLKPEDTAVYYCAADPDSGQVPFDYWGQGTQVTVSS | low polyreactivity |
| QVQLVESGGGLVQAGGSLRLSCAASGRIFKVNTMGWYRQAPGKERELVASIRGGGSTNYADSVKGRFTISRDNAKNTVFLQMNSLKPEDTAVYYCAVGPNSVGNRSYGFDYWGQGTQVTVSS | low polyreactivity |
| QVQLVESGGGIVQAGGSLRLSCAASGSIFRRYATGWYRQAPGKERELVAAISSGGSTYADSVKGRFTISRDNAKNTVYLQMNSLKPEDTAVYYCAVDWAQEDGYWGQGTQVTVSS | low polyreactivity |
| QVQLVESGGGLVQAGGSLRLSCAASGRTFVNNAMGWYRQAPGKERELVAAISRSGGSTYYADSVKGRFTISRDNAKNTVYLQMNSLKPEDTAVYYCNKASNVRGYEYWGQGTQVTVSS | high polyreactivity |
| QVQLVESGGGLVQAGGSLRLSCAASGSTFGRYVMGWYRQAPGKEWELVAAISGSGGSTYYADSVKGRFTISRDNAKNTVDLQMNSLKPEDTAVYYCAAGGPTYELYRRGYWGQGTQVTVSS | high polyreactivity |
| QVQLVESWGGLVQAGGSLRLSCAASGSTLGNNGMGWYRQAPGKERELVAAIDSTVTTNYADSVKGRFTISRDNAKKSVYLHMNSLKPEDTAVYYCAADYWGQGTQVTVSS | low polyreactivity |
| QVQLVESGGGLVQAGGSLRLSCAASGFTFRAYAMGWYRQAPGKERELVAAISTSGGSTYYADSVKGRFTISRDNAKNTVYLQMNSLKPEDTSVYYCAKRGLQGYWSPYNYWGQGTQVTVSS | high polyreactivity |
| QVQLVESRGALVQAGGSLRLSCAASGSTIDAYAMGWYRQAPGKERELVAAITRSGGRTYYADSVKGRFTISRDYAKNTVFLQMNSLKPVDTAVFYCNAYCVYVRGEFWGQGTQVTVSS | high polyreactivity |
| QVQLVESGGGLVQAGGSLRLSCAASGYTFPLYAMGWYRQAPGKERELVADINIGGASTYYADSVKGRFTISRDNAKNTFYLQMKSLKPEDTAVYYCAKEYFDGFFPTFYYDYWGQGTQVTVSS | low polyreactivity |
